Measurements: patent publication US20230331852A1 (OSE IMMUNOTHERAPEUTICS, published 2023)
Each block holds one binder with its values, some of them ahead of it.

What was measured:
[1] = target: T1, recombinant human CLEC-1 protein with His Tag (#1704-CL R&D Systems) (human, UniProt Q8NC01 74-280); assay: Blitz biolayer interferometry, His-CLEC1 on Ni-NTA biosensor, antibody at 20 ug/mL
T1 construct: Bought protein; also called His-CLEC1; His Clec-1; not shown: His tag
T1 sequence: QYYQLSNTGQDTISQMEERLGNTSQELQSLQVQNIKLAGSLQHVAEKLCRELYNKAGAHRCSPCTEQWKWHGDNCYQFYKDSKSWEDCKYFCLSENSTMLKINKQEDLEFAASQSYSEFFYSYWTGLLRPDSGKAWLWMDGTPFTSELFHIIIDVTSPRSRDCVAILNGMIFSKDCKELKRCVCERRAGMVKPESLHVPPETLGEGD

[2] = target: T2, human CLEC-1A expressed on the cell membrane (human, UniProt Q8NC01 1-280); assay: flow cytometry on U266 cells
T2 construct: Endogenous on human U266 myeloma cells, on monocyte-derived TGFb-DC and macrophages; on CHO cells after transduction with a Clec-1 expressing lentivirus; also called U266 CLEC1; CLEC-1A on U266 cells
T2 sequence: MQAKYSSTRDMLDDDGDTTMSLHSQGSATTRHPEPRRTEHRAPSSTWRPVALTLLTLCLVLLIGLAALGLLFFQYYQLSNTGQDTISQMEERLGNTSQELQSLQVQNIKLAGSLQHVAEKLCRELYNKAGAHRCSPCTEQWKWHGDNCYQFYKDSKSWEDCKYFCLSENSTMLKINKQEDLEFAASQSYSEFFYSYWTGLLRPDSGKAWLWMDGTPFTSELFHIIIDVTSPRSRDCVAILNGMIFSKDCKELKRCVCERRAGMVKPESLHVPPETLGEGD
Method: (§1) Method: To measure binding of anti-CLEC1 on human U266 cell lines (pre-blocked with Fcblock to blocking FcR), antibodies at different concentrations were incubated for 30 min at 4° C., and washed before stained 30 min at 4° C. with PE-labelled anti-human IgG (Biolegend; reference 409304). Samples were analyzed on Cytoflex cytofluorometer (Beckman Coulter). The MFI of anti-CLEC1 was compared between all anti-CLEC1 antibodies and percentage of stained cells was analysed in all conditions.

[3] = target: T3, Fc-CLEC1 labelled with Alexa Fluor 488 (human, Alexa Fluor 488 label (sites not given)); assay: FACS competition: blocks Fc-CLEC1-A488 (10 nM) binding to CLEC-1 ligand on UV-treated PBMC
T3 construct: also called Fc-CLEC1-A488; Alexa488-Fc-Clec-1
T3 chain: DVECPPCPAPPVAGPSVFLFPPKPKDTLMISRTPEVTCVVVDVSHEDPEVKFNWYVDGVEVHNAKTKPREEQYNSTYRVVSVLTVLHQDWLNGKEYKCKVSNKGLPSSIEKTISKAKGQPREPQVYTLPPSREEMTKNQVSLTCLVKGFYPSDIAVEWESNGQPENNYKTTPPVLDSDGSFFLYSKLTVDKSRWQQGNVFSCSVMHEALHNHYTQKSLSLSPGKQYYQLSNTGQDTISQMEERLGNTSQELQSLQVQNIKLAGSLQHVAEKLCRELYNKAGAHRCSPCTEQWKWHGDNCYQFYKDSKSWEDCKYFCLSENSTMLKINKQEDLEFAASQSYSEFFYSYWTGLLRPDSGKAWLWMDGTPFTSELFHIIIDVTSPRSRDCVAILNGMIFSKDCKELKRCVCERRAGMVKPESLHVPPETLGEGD
Method: (§2) Competition were also measured on UV pre-treated pro-apoptotic human PBMCs, which can also express the ligand after a treatment under UV radiation for 18 hours. After UV treatment, cells were first washed in cold-PSE and then blocked during 30 min at room temperature with human Fc-block 50-fold diluted in PSE, and then replaced on ice. Purified anti-Clec antibodies at different concentrations were pre-incubated with Alexa488-Fc-Clec-1 in PSE at different concentrations for 15 min at room temperature. Pre-incubated mixes were then incubated on Fc-blocked/SAB (#34005-100, Invitrogen, Illkirch, France) pro-apoptotic PBMCs for 30 min on ice. Binding on cells were then fixed by PFA 2% in cold PBS for 10 min on ice and analyzed on CytoFlex cytofluorometer (Beckman Coulter France, Villepinte).
(§3) Methods. To measure competition on permeabilised Raji (CytoFix/cytoperm kit, BD Biosciences) which expressed CLEC1 ligand, Fc-CLEC1-labelled A488 which bound specifically to permeabilised Raji was used. To measure competition, Fc-CLEC1 labelled A488 at 10 nM or 20 nM was mixed with mouse anti-hCLEC1 at different concentrations for 15 min at RT then added on these cells for 30 min at 4° C. […] To measure competition on PMBC, we used human PBMC pre-treated by UV for 18 h to obtain apoptotic PBMC, which expressed CLEC1 ligand. Fc-CLEC1-labelled A488 bound specifically apoptotic UV-treated PBMC. To measure competition, Fc-CLEC1 labelled A488 at 10 nM was mixed with mouse anti-hCLEC1 at different concentrations for 15 min at RT then added on these cells for 30 min at 4° C.

[4] = target: T1, recombinant human CLEC-1 protein with …; assay: ELISA on immobilised His-CLEC1, anti-human IgG peroxidase
[5] = target: T3, Fc-CLEC1 labelled with Alexa Fluor 488; assay: FACS competition: blocks Fc-CLEC1-A488 (10 nM) binding to CLEC-1 ligand on UV-treated PBMC; % binding
Method: as §2, §3

[6] = target: T1, recombinant human CLEC-1 protein with …; assay: ELISA on immobilised His-CLEC1 (from FIGURE 12)
Method: (§4) Method: The binding activity of the anti-hCLEC1 antibodies was assessed by ELISA (Enzyme-linked immunosorbent assay). […] A second ELISA assays was performed, like above, with immobilization of CLEC1-Fc (OSE Immunotherapeutics) at 2 μg/ml. A third ELISA assays was performed to see the cross-reactivity with mouse CLEC1. Like above, ELISA was made with immobilization of mouse Fc-CLEC1 (OSE Immunotherapeutics) at 2 μg/ml in carbonate buffer instead of His-Clec. Purified antibodies were added at different concentrations to measure binding. […] Control antibody is a commercial anti-CLEC-1A antibody.

[7] = target: T2, human CLEC-1A expressed on the cell …; assay: flow cytometry on CHO-Clec-1 cells (from FIGURE 21)
Method: (§5) To measure binding of anti-clec on CHO-Clec-1 cells, human Fc Receptor Binding Inhibitor diluted at 1/200 (BD pharmingen; USA; reference 564220) was first added for 30 min at room-temperature to block human Fc receptors on CHO-Clec-1 cells to reduce background. Then, antibodies were incubated for 30 min at 4° C., and washed before stained 15 min at 4° C. with PE-labelled anti-human IgG Fc (Biolegend; USA; reference 409303). Samples were analyzed on citoflex (Beckman coulter)

[8] = target: T3, Fc-CLEC1 labelled with Alexa Fluor 488; assay: FACS competition: blocks Fc-CLEC1-A488 (10 nM) binding to CLEC-1 ligand on permeabilised Raji cells; IC50 median
Method: (§6) To measure competition, purified anti-Clec antibodies at different concentrations were pre-incubated in Perm Wash Buffer with Alexa488-Fc-Clec-1 for 15 min at room temperature. Pre-incubated mixes were then incubated on permeabilized and Fc-blocked Raji cells for 30 min on ice. Binding on cells were then fixed by PFA 2% in cold PBS for 10 min on ice and analyzed on CytoFlex cytofluorometer (Beckman Coulter France, Villepinte).
as §3

[9] = target: T1, recombinant human CLEC-1 protein with …; assay: ELISA on immobilised His-CLEC1 (from FIGURE 14)
Method: as §4

[10] = target: T2, human CLEC-1A expressed on the cell …; assay: flow cytometry on CHO-Clec-1 cells, revealed with anti-hFc-PE; median fluorescence
Method: as §5

[11] = target: T2, human CLEC-1A expressed on the cell …; assay: flow cytometry on U266 cells, PE anti-human IgG; % positive cells
Method: as §1

[12] = target: T2, human CLEC-1A expressed on the cell …; assay: flow cytometry on U266 cells, PE anti-human IgG; median fluorescence
Method: as §1

[13] = target: T2, human CLEC-1A expressed on the cell …; assay: flow cytometry on CHO-Clec-1 cells, revealed with anti-hFc-PE; % positive cells
Method: as §5

[14] = target: T3, Fc-CLEC1 labelled with Alexa Fluor 488; assay: FACS competition: blocks Fc-CLEC1-A488 (10 nM) binding to CLEC-1 ligand on permeabilised Raji cells; % binding cells
Method: as §6, §3

[15] = target: T1, recombinant human CLEC-1 protein with …; assay: BLI (Blitz), CLEC1-His on Ni-NTA biosensor, antibody at 20 ug/mL; chimeric antibody, FIG. 17
Method: Analysis was performed with a BLItz System (Fortébio, #C22-2 No 61010-1, Molecular Devices, San José, USA).
The affinity of the anti-hCLEC1 antibodies, was measured with Blitz system (Forté Bio, C22-2 No 61010-1).

- Kd [1]: 108 nM
- koff [1]: 0.00169 s⁻¹
- kon [1]: 15700 M⁻¹ s⁻¹
- EC50 [2]: 0.251 µg/mL
- IC50 [3]: 0.779 µg/mL
- EC50 (read off the curve) [4]: ~0.02 µg/mL
- IC50 (read off the curve) [5]: ~1 µg/mL
- EC50 [6]: 0.0215 µg/mL
- EC50 [7]: 0.123 µg/mL
- IC50 [8]: 8.67 nM
B1: chimeric anti-CLEC-1A antibody 15E3 (antibody, human IgG4 S228P, kappa, V domains shown)
VH: QVQLQQSGPELVKPGASVKMSCKASGFTFTDYVIAWVKVRTGQGLEWIGEIYPGSGSIYYNEKFKGKATLTADKSSNTAYMQLSSLTSEDSAVYFCASSTVVAFDYWGQGTTLTVSS
VL: EIVLTQSPTTLAASPGEKIIITCSDSSSISSNYLHWYQQKPGFSPKLLIYGTSNLASGVPARFSGSGSGTTYSLTIGTMEAEDVATYYCQQGSSIPRTFGGGTKLEIKR
notes: also called 15E3chim; 15E3-VHwt-FcG4m / 15E3-VLwt-CLhk

- Kd [1]: 0.448 nM
- koff [1]: 0.00019 s⁻¹
- kon [1]: 188000 M⁻¹ s⁻¹
- EC50 [2]: 1.12 µg/mL
- EC50 [9]: 0.00846 µg/mL
- EC50 [7]: 1.38 µg/mL
- IC50 [8]: 5.84 nM
B2: chimeric anti-CLEC-1A antibody 11H11 (antibody, human IgG4 S228P, kappa, V domains shown)
VH: QIHLVQSGPELKKPGETVKISCKASGYTFTNFGMNWVKQAPGKGLKWMGWINTNTGEPTYADDFKGRFAFSLETSASTAYLQINNLKNEDTATYFCARGAPAWFTYWGQGTLVTVSA
VL: DIQMTQSPASLSASVGETVTITCRATENIYSYLAWYQQKQGKSPQFLVYNAKTLAEGMPSRFSGSGSGTQFSLKINILQPEDFGTYYCQHHFGTPLTFGAGTKLELKR
notes: also called 11H11chim; 11H11-VHwt-FcG4m / 11H11-VLwt-CLhk

Second part, the binder before the results:

B3: chimeric anti-CLEC-1A antibody 6C5 (antibody, human IgG4 S228P, kappa, V domains shown)
VH: QVQLQQSGPELVKPGASVKMSCKASGYTFTDYVISWVKQKTGQGLEWIGEIYPGSGNTYYNEKFKGKATLTADKSSSTAYIHLSSLTSEDSAVYFCAGGGSSHFDYWGQGTTLTVSS
VL: not shown
notes: also called 6C5chim; 6C5-VHwt-FcG4m / 6C5-VLwt-CLhk
- EC50 (read off the curve) [10]: ~0.1 µg/mL
- Kd [1]: 40.3 nM
- koff [1]: 0.00179 s⁻¹
- kon [1]: 44500 M⁻¹ s⁻¹
- EC50 (read off the curve) [11]: ~0.2 µg/mL
- EC50 [2]: 0.258 µg/mL
- IC50 [3]: 0.626 µg/mL
- EC50 (read off the curve) [12]: ~0.3 µg/mL
- EC50 [6]: 0.326 µg/mL
- EC50 (read off the curve) [13]: ~0.1 µg/mL
- EC50 [7]: 0.123 µg/mL
- IC50 [8]: 7.71 nM

B4: chimeric anti-CLEC-1A antibody 5D1 (antibody, human IgG4 S228P, kappa, V domains shown)
VH: QVQLKESGPGLVAPSQSLSITCTISGFSLTSYGVHWVRQPPGKGLEWLVVIWSDGSTIYNSALKSRLSISKDNSKSQVFLKMNSLQTDDTAMYYCARHGGYYNYFDYWGQGTTLTVSS
VL: DIQMNQSPSSLSASLGDTITITCHASQNINVWLSWYQQKPGNIPKLLIYKASNLHTGVPSRFSGSGSGTGFTLTISSLQPEDIATYYCQQGQSYWTFGGGTKLEIKR
notes: also called 5D1chim; 5D1-VHwt-FcG4m / 5D1-VLwt-CLhk
- Kd [1]: 17.4 nM
- koff [1]: 0.0012 s⁻¹
- kon [1]: 68900 M⁻¹ s⁻¹
- EC50 (read off the curve) [11]: ~0.06 µg/mL
- EC50 [2]: 0.0847 µg/mL
- IC50 (read off the curve) [14]: ~10 nM
- IC50 [3]: 1.19 µg/mL
- IC50 (read off the curve) [5]: ~0.8 µg/mL
- EC50 (read off the curve) [12]: ~0.06 µg/mL
- Kd [15]: ~10 nM
- EC50 [6]: 0.164 µg/mL
- IC50 [8]: 13.7 nM
